Measurements: PMC11269473, “Monoamine oxidase inhibition properties of 2,1-benzisoxazole derivatives” (Molecular Diversity, 2023)

What was measured:
[1] = substrate: NCCC(=O)c1ccccc1N; assay: Lineweaver–Burk plots / mode of MAO-B inhibition and Ki; assay type: biochemical, human; conditions: other: global (shared) fitting of the kinetic data; pH 7.4; 37.0 °C
Method: (§1) These two compounds represent potent MAO inhibitors among the study compounds. […] Each line of the Lineweaver–Burk plots was constructed with the kynuramine concentration ranging from 15 to 250 μM.
(§2) The insets are replots of the slopes of the Lineweaver–Burk plots versus inhibitor concentration. The Ki value equals the negative of the x-axis intercept when y = 0
(§3) IC50 values for the inhibition of MAO were measured as described previously. Microsomes from insect cells containing recombinant human MAO-A and MAO-B (5 mg protein/mL) served as enzyme sources (Sigma-Aldrich) while kynuramine was used as non-specific MAO substrate. The enzyme reactions (200 µL reactions prepared in 96-well microtiter plates) contained phosphate buffer (100 mM, pH 7.4), 50 µM kynuramine and the test inhibitors at concentrations of 0.003–100 µM. Stock solutions of the test inhibitors were dissolved in DMSO and added to the enzyme reactions to give a final DMSO concentration of 4% (v/v). […] The concentration of 4-hydroxyquinoline, the product of kynuramine oxidation by MAO, was measured by fluorescence spectrophotometry (λex = 310 nm; λem = 400 nm). […] IC50 values were estimated in triplicate determinations from these plots and are expressed as mean ± standard deviation (SD). […]

[2] = substrate: NCCC(=O)c1ccccc1N; assay: Lineweaver–Burk plots / mode of MAO-A inhibition and Ki; assay type: biochemical, human; conditions: other: global (shared) fitting of the kinetic data; pH 7.4; 37.0 °C
Method: as §1, §2, §3

| Protein | Km [1] | Vmax [1] | Km [2] | Vmax [2] |
| --- | --- | --- | --- | --- |
| recombinant human MAO-B (Homo sapiens) (protein, purchased Sigma-Aldrich; host or cells: insect cells (microsomes)) MSNKCDVVVVGGGISGMAAAKLLHDSGLNVVVLEARDRVGGRTYTLRNQKVKYVDLGGSYVGPTQNRILRLAKELGLETYKVNEVERLIHHVKGKSYPFRGPFPPVWNPITYLDHNNFWRTMDDMGREIPSDAPWKAPLAEEWDNMTMKELLDKLCWTESAKQLATLFVNLCVTAETHEVSALWFLWYVKQCGGTTRIISTTNGGQERKFVGGSGQVSERIMDLLGDRVKLERPVIYIDQTRENVLVETLNHEMYEAKYVISAIPPTLGMKIHFNPPLPMMRNQMITRVPLGSVIKCIVYYKEPFWRKKDYCGTMIIDGEEAPVAYTLDDTKPEGNYAAIMGFILAHKARKLARLTKEERLKKLCELYAKVLGSLEALEPVHYEEKNWCEEQYSGGCYTTYFPPGILTQYGRVLRQPVDRIYFAGTETATHWSGYMEGAVEAGERAAREILHAMGKIPEDEIWQSEPESVDVPAQPITTTFLERHLPSVPGLLRLIGLTTIFSATALGFLAHKRGLLVRV | 32.4 ± 3.73 µM | 8.39 ± 0.28 nmol/min.mg protein | – | – |
| recombinant human MAO-A (Homo sapiens) (protein, purchased Sigma-Aldrich; host or cells: insect cells (microsomes)) MENQEKASIAGHMFDVVVIGGGISGLSAAKLLTEYGVSVLVLEARDRVGGRTYTIRNEHVDYVDVGGAYVGPTQNRILRLSKELGIETYKVNVSERLVQYVKGKTYPFRGAFPPVWNPIAYLDYNNLWRTIDNMGKEIPTDAPWEAQHADKWDKMTMKELIDKICWTKTARRFAYLFVNINVTSEPHEVSALWFLWYVKQCGGTTRIFSVTNGGQERKFVGGSGQVSERIMDLLGDQVKLNHPVTHVDQSSDNIIIETLNHEHYECKYVINAIPPTLTAKIHFRPELPAERNQLIQRLPMGAVIKCMMYYKEAFWKKKDYCGCMIIEDEDAPISITLDDTKPDGSLPAIMGFILARKADRLAKLHKEIRKKKICELYAKVLGSQEALHPVHYEEKNWCEEQYSGGCYTAYFPPGIMTQYGRVIRQPVGRIFFAGTETATKWSGYMEGAVEAGERAAREVLNGLGKVTEKDIWVQEPESKDVPAVEITHTFWERNLPSVSGLLKIIGFSTSVTALGFVLYKYKLLPRS | – | – | 49.8 ± 3.07 µM | 34.0 ± 0.80 nmol/min.mg protein |
